According to the nanobody polyreactivity screen of Harvey et al. (2022):

Test: yeast display, Sf9 membrane polyspecificity reagent, FACS + sequencing; frameworks hold sequencing errors
In short: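 Nanobodies from a synthetic yeast display library (Saccharomyces cerevisiae BJ5465), induced 36–48 hours with galactose, were stained 1 hour at 4 °C with 10% biotinylated, detergent-solubilized Sf9 membrane reagent, enriched on streptavidin microbeads, then FACS-sorted. Anti-HA (expression) and streptavidin (reagent binding) fluorescence set low and high (top ~1%) gates. Polyreactivity labels come from the gate of origin. Genes were colony-PCR amplified, MiSeq 2 × 250 sequenced and filtered by CDR length.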

Row | Sequence | polyreactivity (PSR sort gate)
1 | QVQLVESGGGLVQAGGSLRLSCAASGSILYSNAMGWYRQAPGKERELVAVITWGGGSTYYADSVKGRFTISRDNAKNTVFLQMNSLKPEDTAVYYCAARARRGLRAYVELDYWGQGTQVTVSS | low polyreactivity
2 | QVQLVESGGGLVQAGGSLRLSCAASGSILYSYPMGWYRQAPGKERELVAAITGDGASTTYADSVKGRFTISRDNAKNTVYLQLNSLKPEDTAVYYCKAGRESDDVSEGSQRICQFDYWGPGTQVTVSS | low polyreactivity
3 | QVQLVESGGGLVQAGGSLRLSCAASGSILYVYAMGWYRQAPGKEWELVAVITSGGSTNYADSVKGRFTISRDNAKNTVYLQMNSLKPEDTAVYYCAADPYSVYGGDYWGQGTQVTVSS | low polyreactivity
4 | QVQLVESGGGLVQAGGSLRLSCAASGSILYYNAMGWYRQAPGKERELVAAISQRGASTYYADSVKGRFTISRDNAKNTVYLQMNSLKPEDTAVYYCAARTRLTADPRYGISSKMYYWGQGTQVTVSS | high polyreactivity
5 | QVQLVESGGGLVQAGGSLRLSCAASGSILYYNAMGWYRQAPGKERELVAAITSGGSTYADSVKGRFTISRDNAKNTVYLQMNSLKPEDTAVYYCAADLDWYLSDYGTSLEHDYWGQGTQVTVSS | low polyreactivity
6 | QVQLVESGGGLVQAGGSLRLSCAASGSILYYYAMGWYRQAPGKERELVAAITRSGGSTYYADSVKGRITISRDNAKNTVYLQMNSLKPEDTAVYYCAKDAHAYRDLDYWGQGTQVTVSS | low polyreactivity
7 | QVQLVESGGGLVQAGGSLRLSCAASGSIQYYAMGWYRHAPGKERELVAAIRFSGGRTYYADSVKGRFTISRDNAKITVYLQMHSLKPEHTAVYYCAAYRSPRRSGAPSQGKFDYCGQGTQVTVSS | low polyreactivity
8 | QVQLVESGGGLVQAGGSLRLSCAASGSIRHNTIGWYRQAPGKESEFVASISKRGGSTYYADSVKGRFTISRDNAKNTVYLQMNSLKPEDTAVYYCNAGAVTFVGRDYWGQGTQVTVSS | high polyreactivity
9 | QVQLVESGGGLVQAGGSLRLSCAASGSIRSYAMGWYRQAPGKERELVAAITRSGGSTYYADSVKGRFTISRDNAKNTVYLQMNSLKPEDTAVYYCAAEVRGKSRSTRVSYRYDYWGQGTQVTVSS | high polyreactivity
10 | QVQLVESGGGLVQAGGSLRLSCAASGSIRVTNDMGWYRQATGKERELVAAITSIGGSTNYADSVKGRFTISRDNAKNPVYLQMNSLKPEDTAVYYCNVYLGILYKYDYWGQGTQVTVSS | low polyreactivity
11 | QVQLVESGGGLVQAGGSLRLSCAASGSIRYYAMGWYIQAPGKERELVAAISSRGTNTYYADSVKGRFTISRDNAKNTVYLQMNSLKPEDTAVYYCNAVVGLGYNYWGQGTQVTVSS | high polyreactivity
12 | QVQLVESGGGLVQAGGSLRLSCAASGSIRYYAMGWYRQAPGKEREFVAAISRRGSSTNYADSVKGRFTISRDNAKNTVYLQMNRLKPEDTAVYYCARGLDVISYGYDYWGQGTQVTVSS | high polyreactivity
13 | QVQLVESGGGLVQAGGSLRLSCAASGSISAPNAMGWYRQAPGKERELVATINSGGRTNYADSVKGRFTISRDNSKNTVYLQMNSLKPEDTAVYYCNTVFRGAYTYGDVSKYDYWGQGTQVTVSS | low polyreactivity
14 | QVQLVESGGGLVQAGGSLRLSCAASGSISDIYAMGWYRQAPGKERELVASISSGGITNYADSVKGRFTISRDNAKNTVYLQMNSLKPEDTAVYYCAKDRYPISFFYQMEYWGQGTQVTVSS | low polyreactivity
15 | QVQLVESGGGLVQAGGSLRLSCAASGSISEIYAMGWYRQAPGKERELVAAISWSGGRTYYADSVKGRFTISRDNAKNTVYLQMNSLKPEDTAVYYCAARYRGGYYFGYEPYYYWGQGTQVTVSS | high polyreactivity
16 | QVQLVESGGGLVQAGGSLRLSCAASGSISFLYTMGWYRQAPGKERELVAAITGSTASTYYADSVKGRFTISSDYAKNTVYLQMKSLKPEDTAVYYCAAYWYAVGYWVSRDYWGQGTQVTVSS | low polyreactivity
17 | QVQLVESGGGLVQAGGSLRLSCAASGSISGWYAMGWYRQAPGKERELVADISSIAGSTYYADCVKGRFTISRDNAKNTDSLQKNSLKPEDTAVYYGAADRGVDYEYDYWGQGTQVTVSS | low polyreactivity
18 | QVQLVESGGGLVQAGGSLRLSCAASGSISGYYVMGWYRQAPGKERELVAAITWRGGSTYYADSVKGSFTISRDNAKNTVYLQMNSLKPEDTAVYYCNKVPGRRSTFEYWGQGTQVTVSS | high polyreactivity
19 | QVQLVESGGGLVQAGGSLRLSCAASGSISHYAMGWYTQAPGTESELVAAISRRGGSTYYADSVKGRFTISRDNAKNTVYLQLNSLKPEDTAVYYCNAVRAGGYTEFNYWGQGTQVTVSS | high polyreactivity
20 | QVQLVESGGGLVQAGGSLRLSCAASGSISKINAMGWYRQAPGKERELVAAINTGDSTYYADSVKGRFTISRDNAKNTVYLQMNSLKPEDTAVYYCAAEGSPTGYDYWGQGTQVTVSS | low polyreactivity
21 | QVQLVESGGGLVQAGGSLRLSCAASGSISPQNVMGWYRQAPGKERELVAAITWTGTSTYADSVKGSFTISRDNAKNTVYLQMNSLKPEDTAVYYCAARYYAPRWFRYDYWGQGTQVTVSS | low polyreactivity
22 | QVQLVESGGGLVQAGGSLRLSCAASGSISQKYVMGWYRKAPGKERELVAAIRSTGNTYYADSVKGRFTISRDNAKNTVYLQMNSLKPEDTAVYYCAARLYVLRWYPYDYWGQGTQVTVSS | low polyreactivity

Row | Sequence | polyreactivity (PSR sort gate)
23 | QVQLVESGGGLVQAGGSLRLSCAASGSISQPYAMGGYRQAPGKERELVAAIRWSGGSTYYADSVKGRFTISRDNAKNTVYLEMNCLNPEDTAVYYCNKTTYYPSDYVYWGQGTQVTVSS | low polyreactivity
24 | QVQLVESGGGLVQAGGSLRLSCAASGSISSFYAMGWYRQAPGKERELVAGITSGGSTNYADSVKGRFTISRDNAKNTVYLQKNSLKPEDTAVYYCAAVYQGAGTHFDVFVKEFDYWGQGTQVTVSS | low polyreactivity
25 | QVQLVESGGGLVQAGGSLRLSCAASGSISTVYAMGWSRQAPGKERELVAAISWSGGSTYYADSVKGRFTISRDNAKNTDYLQMNSLKPEDTAFYYCAVRGLLYHSYYSVRYDYWGQGTQVTVSS | high polyreactivity
26 | QVQLVESGGGLVQAGGSLRLSCAASGSISTYNDSGWYRQAPGKEREFVASITLSTGRTDYADSVKGRFTISRDNAKNTVYLQMNSLKPEETAVYVCSVRDYARKYLTSFDYWGQGTQVTVSS | high polyreactivity
27 | QVQLVESGGGLVQAGGSLRLSCAASGSISVGYTMGWYRQAPGKEREFVAVITGTGGRTRYSDSVKGRFTISRDNAKNTVYLQMNSLKPEDTAGYYCAAKIRWRGALYDYWGQGTQVTVSS | high polyreactivity
28 | QVQLVESGGGLVQAGGSLRLSCAASGSISVRNVMGWYRQAPGKERELVATIRRTGGSTSYADSVKGRFTISRDNAKNTVYVQMNSLKPEDTAVYYCAAVGYTTYRRYDYWGQGTQVTVSS | low polyreactivity
29 | QVQLVESGGGLVQAGGSLRLSCAASGSISVRNVMGWYRQAPRKERELVATIRRTGGSTSYADSVKGRFTISRDNAKNTVYLQMNSLKPEDTAVYYCAAVGYTTYRRYDYWGQGTQVTVSS | low polyreactivity
30 | QVQLVESGGGLVQAGGSLRLSCAASGSISVSYMGWYRQAPGKERELVAAINWRGGSTYYADSVKGRFTISRDNAKNTVYLQMNSLKPEDTAVYYCAADYTVSYPYYEYYYWGQGTQVNVSS | high polyreactivity
31 | QVQLVESGGGLVQAGGSLRLSCAASGSISWKYAMGWSRQAPGKERELVAAISWSGSSTYYADSVKGRFTISRDNAKNTVYLQMNSLKPEDTAVYYCAADRVSRLTNRREYWGQGTQVTVSS | high polyreactivity
32 | QVQLVESGGGLVQAGGSLRLSCAASGSISYDYAMGWYRQAPGKERELVASITSRGGSTYADSVKGRFTISRDNAKNTVYLQMNSLKPEDTAVYYCAADAIPNLIFISLPFGLDYWGQGTQVTVSS | low polyreactivity
33 | QVQLVESGGGLVQAGGSLRLSCAASGSISYFNDMGWYRQAPGKERELVAAIRDSGGITYADSVKGRFTISRDNAKNTVYLQMNSLKPEDTAVYYCDKDAGLQKYHHDYWGQGTQVTVSS | low polyreactivity
34 | QVQLVESGGGLVQAGGSLRLSCAASGSISYQNAMGWYRQAPGKERELVAAISGDGDSTYYADSVKGRFTISRDNAKNTVYLQMNSLKPEDTAVYYCAAEPNVYFSVFVLFPSDYWGQGTQVTVSS | low polyreactivity
35 | QVQLVESGGGLVQAGGSLRLSCAASGSISYRYVMGWYRQAPGKERELVAAITTSGGSTYYADSVKGRFTISRDNAKNTVYLQKNSLKPEDTAVYYCAKVYQADQLRSHYDYWGQGTQVTVSS | high polyreactivity
36 | QVQLVESGGGLVQAGGSLRLSCAASGSISYYNAMGWYRQAPGKERELVATITDSGGSTYYADSVKGRFTISRDNAKNTVYLQMNSLKPEDTAVYYCAVDYTEWYSIYDYWGQGTEVTVSS | low polyreactivity
37 | QVQLVESGGGLVQAGGSLRLSCAASGSISYYYGMGWYRQAPGKERELVAAISTRGGSTYYADSVKGRFTISRDNAKNTVYLQMNSLKPEDTAVYYCAVRYYRPYSRFDYWGQGTQVTVSS | high polyreactivity
38 | QVQLVESGGGLVQAGGSLRLSCAASGSITVPYGMGWYRQAPGKERELVAAITGGSTNYADSVKGRFTISRDNAKNTVYLQMNSLKPEDTAVYYCAADWWALYTRYDYWGQGSQVTVSS | low polyreactivity
39 | QVQLVESGGGLVQAGGSLRLSCAASGSIVDFYAMGWYRQSPGTERELVAAIDDIDDSTYYADSVKGRFTISRDNAKNTVYLQMNSLKPEDTAVYYCAAELRPGYRSSYGLIYDYWGQGTQVTVSS | low polyreactivity
40 | QVQLVESGGGLVQAGGSLRLSCAASGSIVDTNAMGWYRQAPGKERELVAAITSTDSTNYADSVKGRFTISRDNAKNTVYLQMNSLKPEDTAVYYCNAALSQLRRGGLAMDYWGQGTQVTVSS | low polyreactivity
41 | QVQLVESGGGLVQAGGSLRLSCAASGSIVDWYVMGWYRQAPGKERELVAAITSTGSTYYADSVKGRFTISRDNAKNTVYLQMNSLKPEDTAVYYCATSFYVYPTYYIMDYWGQGTQVTVSS | low polyreactivity
42 | QVQLVESGGGLVQAGGSLRLSCAASGSIVGTYAMGWYRQAPGKERELVAAITWRGGNTYYADSVKGRFTISRDNAKNTVYLQMNSLKPEDTAVYYCAARGYKSSRRYYYWGQGTQVTVSS | high polyreactivity
43 | QVQLVESGGGLVQAGGSLRLSCAASGSIVGYNAMGWYRQAPGKEWEFVAAISWSGGRTYYADSVKGRFTISRDNAKNTVYLQMNILKPEDTAVYYSAADVFFYVYEAYLLYYWGQRTQVTVSS | low polyreactivity
